Assay results as given in patent US20260274985A1 (MYTHIC THERAPEUTICS, published 2026).

Key:
[1] = molecular target: T1, TROP2 on TROP2-positive NCI-H1975 cells (human, UniProt P09758 27-323); test: cell-based or functional assay
T1 sequence: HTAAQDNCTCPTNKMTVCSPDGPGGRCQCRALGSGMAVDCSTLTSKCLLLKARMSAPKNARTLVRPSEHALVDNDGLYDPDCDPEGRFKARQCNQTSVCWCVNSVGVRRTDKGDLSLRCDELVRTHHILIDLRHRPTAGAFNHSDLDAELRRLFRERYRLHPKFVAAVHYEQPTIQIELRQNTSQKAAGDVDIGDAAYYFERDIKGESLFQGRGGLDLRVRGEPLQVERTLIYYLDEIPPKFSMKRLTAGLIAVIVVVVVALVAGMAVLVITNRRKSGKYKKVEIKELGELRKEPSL

[2] = molecular target: T2, Human TROP2 Protein, His Tag (Acro Biosystems) (human, UniProt P09758 27-274); test: BLI (Octet) [2/2]
T2 construct: also called TACSTD2; not shown: His tag
T2 sequence (looked up): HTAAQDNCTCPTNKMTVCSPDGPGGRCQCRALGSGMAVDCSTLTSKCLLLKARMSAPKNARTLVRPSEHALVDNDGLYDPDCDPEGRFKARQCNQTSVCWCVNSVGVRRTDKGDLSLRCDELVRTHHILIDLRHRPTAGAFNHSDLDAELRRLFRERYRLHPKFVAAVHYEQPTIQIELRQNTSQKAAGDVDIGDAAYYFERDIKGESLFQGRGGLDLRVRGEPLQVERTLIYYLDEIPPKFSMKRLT

[3] = molecular target: T3, Human TROP2 Protein, His Tag (Acro Biosystems) (human, UniProt P09758 27-274); test: BLI (Octet)
T3 construct: not shown: His tag
T3 sequence (looked up): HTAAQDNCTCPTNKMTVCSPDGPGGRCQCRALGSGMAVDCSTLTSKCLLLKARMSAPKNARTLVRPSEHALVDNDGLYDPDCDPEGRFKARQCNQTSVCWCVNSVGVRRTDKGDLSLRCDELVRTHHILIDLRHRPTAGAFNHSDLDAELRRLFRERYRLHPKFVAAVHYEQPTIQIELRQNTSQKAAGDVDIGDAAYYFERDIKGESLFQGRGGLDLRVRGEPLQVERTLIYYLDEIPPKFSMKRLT

[4] = molecular target: T4, Human TROP2 Protein, His Tag (Acro Biosystems) (human, UniProt P09758 27-274); test: Octet BLI: IgG supernatant on anti-human Fc sensor, 50 nM TROP2-His at pH 7.4; Octet Binding Result 3=No binding
T4 construct: not shown: His tag
T4 sequence (looked up): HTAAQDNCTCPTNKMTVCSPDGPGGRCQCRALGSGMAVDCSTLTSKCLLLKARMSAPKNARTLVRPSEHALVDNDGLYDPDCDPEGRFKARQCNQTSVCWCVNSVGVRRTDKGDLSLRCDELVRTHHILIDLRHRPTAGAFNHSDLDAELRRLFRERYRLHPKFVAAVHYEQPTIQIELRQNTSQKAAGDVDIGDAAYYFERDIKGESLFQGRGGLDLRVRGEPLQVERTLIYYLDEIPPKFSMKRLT
Experimental: After allowing for four days of protein expression, cell culture supernatants were collected, quantified by SDS-PAGE analysis (DNS), and the pH dependence of the variant was evaluated using biolayer interferometry (BLI) on an Octet RED 96e instrument. Briefly, cell culture supernatants were diluted based on qualitative expression level of the variant determined by visual examination of SDS-PAGE gels, 5 μL of cell culture supernatant was diluted into 195 μL of 1×PBST, pH 7.4 for high expressors, 25 μL of cell culture supernatant was diluted into 175 μL of 1×PBST, pH 7.4 for medium expressors and 100 μL of cell culture supernatant was diluted into 100 μL of 1×PBST, pH 7.4 for low expressors for loading onto the sensor tips. The resulting diluted supernatants were then captured on an anti-human Fc sensor (Forte Bio). A baseline was established using 1×PBST (50 mM Potassium Phosphate Buffer+150 mM NaCl+0.05% Tween 20) pH 7.4, and the sensor was associated with 50 nM of TROP2 (Human TROP2 Protein, His Tag, Acro Biosystems) in 1×PBST pH 7.4 for 120 sec to generate an association curve. In the dissociation phase, the antibody-antigen complex on the sensor was exposed to 1×PBST pH 7.4 or pH 5.4, for 300 sec. Association and dissociation phase curves were examined for the starting ABPC antibody (with no substitutions) and each corresponding antibody variant at pH 5.4 and pH 7.4 to inform on two criteria: a) enhanced dissociation (i.e., higher koff values) at pH 5.4 due to histidine or alanine substitution compared to the starting ABPC, (with no substitutions), and b) reduced dissociation at pH 7.4 (i.e., lower koff values) compared to pH 5.4 in the antibody variant itself and with the starting ABPC (with no substitutions). […] It was also noted that while some mutations obliterated TROP2 binding, others were tolerated with little or n change in TROP2 binding kinetics.

B1: 166-DXd (antibody, IgG1, V domains shown)
VH: QVQLQQSGSELKKPGASVKVSCKASGYTFTNYGMNWVKQAPGQGLKWMGWINTYTGEPTYTHDFKGRFAFSLDTSVSTAYLQISSLKADDTAVYFCARGGFGSSYWYFDVWGQGSLVTVSS
VL: DIQLTQSPSSLSASVGDRVSITCKASQDVHIAVAWYQQKPGKAPKLLIYSHSYRYTGVPDRFSGSGSGTDFTLTISSLQPEDFAVYYCQQHYHTPLTFGAGTKVEIK
modifications: maleimide based GGFG-DXd conjugated to hinge cysteines, average DAR of about 4
[1]
  % efficiency @ 100 nM ADC (cytotoxicity in NCI-H1975 cells): 9.57%

B2: 165-DXd (antibody, IgG1, V domains shown)
VH: QVQLQQSGSELKKPGASVKVSCKASGYTFTNYGMNWVKQAPGQGLKWMGWINTYTGEPTYTDDFKGRFAFSLDTSVSTAYLQISSLKADDTAVYFCARGGFGSSYWYFDVWGQGSLVTVSS
VL: DIQLTQSPSSLSASVGDRVSITCKASQDVSIAVAWYQQKPGKAPKLLIYSASYRYTGVPDRFSGSGSGTDFTLTISSLQPEDFAVYYCQQHYITPLTFGAGTKVEIK
modifications: maleimide based GGFG-DXd conjugated to hinge cysteines, average DAR of about 4
[1]
  % efficiency @ 100 nM ADC (cytotoxicity in NCI-H1975 cells): 1.47%

B3: 168-DXd (antibody, IgG1, V domains shown)
VH: QVQLQQSGSELKKPGASVKVSCKASGYTFTNYGMNWVKQAPGQGLKWMGWINTYTGEPTYTDDHKGRFAFSLDTSVSTAYLQISSLKADDTAVYFCARGGFGSSYWYFDVWGQGSLVTVSS
VL: DIQLTQSPSSLSASVGDRVSITCKASQDVHIAVAWYQQKPGKAPKLLIYSHSYRYTGVPDRFSGSGSGTDFTLTISSLQPEDFAVYYCQQHYHTPLTFGAGTKVEIK
modifications: maleimide based GGFG-DXd conjugated to hinge cysteines, average DAR of about 4
[1]
  % efficiency @ 100 nM ADC (cytotoxicity in NCI-H1975 cells): 7.32%

B4: MYT13255 (antibody, V domains shown)
VH: QVQLQQSGSELKKPGASVKVSCKASGYTFTNYGMNWVKQAPGQGLKWMGWINTYTGEPTYTDDFKHRFAFSLDTSVSTAYLQISSLKADDTAVYFCARGGFGSSYWYFDVWGQGSLVTVSS
VL: DIQLTQSPSSLSASVGDRVSITCKASQDVSIAVAWYQQKPGKAPKLLIYSAHYRYTGVPDRFSGSGSGTDFTLTISSLQPEDFAVYYCQQHYHTPLTFGAGTKVEIK
notes: Sacituzumab HC-LC pairing variant
[2]
  binding result: binds

B5: MYT13252 (antibody, V domains shown)
VH: QVQLQQSGSELKKPGASVKVSCKASGYTFTNYGMNWVKQAPGQGLKWMGWINTYTGEPTYTDHFKGRFAFSLDTSVSTAYLQISSLKADDTAVYFCARGGFGSSYWYFDVWGQGSLVTVSS
VL: DIQLTQSPSSLSASVGDRVSITCKASQDVSIAVAWYQQKPGKAPKLLIYSAHYRYTGVPDRFSGSGSGTDFTLTISSLQPEDFAVYYCQQHYHTPLTFGAGTKVEIK
notes: as for B4
[2]
  binding result: binds

B6: MYT12398 (antibody, V domains shown)
VH: QVQLVQSGAEVKKPGASVKVSCKASGYTFTTAGMQWVRQAPGQGLEWMGWINTHSGVPKYAEDFKGRVTISADTSTSTAYLQLSSLKSEDTAVYYCARSGFGSSYWYFDVWGQGTLVTVSS
VL: DIQMTQSPSSLSASVGDRVTITCKASQHVSTAVAWYQQKPGKAPKLLIYSHHYRYTGVPSRFSGSGSGTDFTLTISSLQPEDFAVYYCQQHYITPLTFGQGTKLEIK
notes: datopotamab VL 28, 51, 52 substituted
[3]
  binding result: binds

B7: MYT13254 (antibody, V domains shown)
VH: QVQLQQSGSELKKPGASVKVSCKASGYTFTNYGMNWVKQAPGQGLKWMGWINTYTGEPTYTDDFHGRFAFSLDTSVSTAYLQISSLKADDTAVYFCARGGFGSSYWYFDVWGQGSLVTVSS
VL: DIQLTQSPSSLSASVGDRVSITCKASQDVSIAVAWYQQKPGKAPKLLIYSAHYRYTGVPDRFSGSGSGTDFTLTISSLQPEDFAVYYCQQHYHTPLTFGAGTKVEIK
notes: as for B4
[2]
  binding result: binds

B8: 167-DXd (antibody, IgG1, V domains shown)
VH: QVQLQQSGSELKKPGASVKVSCKASGYTFTNYGMNWVKQAPGQGLKWMGWINTYTGEPTYTDHFKGRFAFSLDTSVSTAYLQISSLKADDTAVYFCARGGFGSSYWYFDVWGQGSLVTVSS
VL: DIQLTQSPSSLSASVGDRVSITCKASQDVHIAHAWYQQKPGKAPKLLIYSASYRYTGVPDRFSGSGSGTDFTLTISSLQPEDFAVYYCQQHYITPLTFGAGTKVEIK
modifications: maleimide based GGFG-DXd conjugated to hinge cysteines, average DAR of about 4
[1]
  % efficiency @ 100 nM ADC (cytotoxicity in NCI-H1975 cells): 4.86%

B9: MYT13253 (antibody, V domains shown)
VH: QVQLQQSGSELKKPGASVKVSCKASGYTFTNYGMNWVKQAPGQGLKWMGWINTYTGEPTYTDDHKGRFAFSLDTSVSTAYLQISSLKADDTAVYFCARGGFGSSYWYFDVWGQGSLVTVSS
VL: DIQLTQSPSSLSASVGDRVSITCKASQDVSIAVAWYQQKPGKAPKLLIYSAHYRYTGVPDRFSGSGSGTDFTLTISSLQPEDFAVYYCQQHYHTPLTFGAGTKVEIK
notes: as for B4
[2]
  binding result: binds

B10: MYT12404 (antibody, V domains shown)
VH: QVQLVQSGAEVKKPGASVKVSCKASGYTFTTAGMQWVRQAPGQGLEWMGWINTHSGVPKYAEDFKGRVTISADTSTSTAYLQLSSLKSEDTAVYYCARSGFGSSYWYFDVWGQGTLVTVSS
VL: DIQMTQSPSSLSASVGDRVTITCKASQDVSTAVAWYQQKPGKAPKLLIYSHHYRYTGVPSRFSGSGSGTDFTLTISSLQPEDFAVYYCHQHYITPLTFGQGTKLEIK
notes: datopotamab VL 51, 52, 89 substituted
[3]
  binding result: binds

B11: MYT12392 (antibody, V domains shown)
VH: QVQLVQSGAEVKKPGASVKVSCKASGYTFTTAGMQWVRQAPGQGLEWMGWINTHSGVPKYAEDFKGRVTISADTSTSTAYLQLSSLKSEDTAVYYCARSGFGSSYWYFDVWGQGTLVTVSS
VL: DIQMTQSPSSLSASVGDRVTITCKASQDVSTAVAWYQQKPGKAPKLLIYSHHYRYTGVPSRFSGSGSGTDFTLTISSLQPEDFAVYYCQQHYITPLTFGQGTKLEIK
notes: datopotamab VL 51, 52 substituted
[3]
  binding result: binds

B12: MYT12393 (antibody, V domains shown)
VH: QVQLVQSGAEVKKPGASVKVSCKASGYTFTTAGMQWVRQAPGQGLEWMGWINTHSGVPKYAEDFKGRVTISADTSTSTAYLQLSSLKSEDTAVYYCARSGFGSSYWYFDVWGQGTLVTVSS
VL: DIQMTQSPSSLSASVGDRVTITCKASQDVSTAVAWYQQKPGKAPKLLIYSHSYRYTGVPSRFSGSGSGTDFTLTISSLQPEDFAVYYCHQHYITPLTFGQGTKLEIK
notes: datopotamab VL 51, 89 substituted
[3]
  binding result: binds

B13: MYT13307 (antibody, V domains shown)
VH: QVQLQESGPGLVKPSETLSLTCTVSGGSISSYGVHWIRQPPGKGLEWIGVIWTSGHTDYNSALMGRVTISVDTSKNQFSLKLSSVTAADTAVYYCARDGDYDRYTMDYWGQGTLVTVSS
VL: DIVMTQSPDSLAVSLGERATINCRASKSVSTSGYSYMHWYQQKPGQPPKLLIYLASNLHSGVPDRFSGSGSGTDFTLTISSLQAEDVAVYYCQASRELPYTFGQGTKLEIK
notes: Full-length IgG from Expi293 supernatant; also called hu7E6SVG heavy chain and light chain pairing variant
[4]
  binding result: no binding (tested: 50 nM)

B14: MYT13312 (antibody, V domains shown)
VH: QVQLQESGPGLVKPSETLSLTCTVSGGSISSYGVHWIRQPPGKGLEWIGVIWTSGHTDYNSALMGRVTISVDTSKNQFSLKLSSVTAADTAVYYCARDGDYDRYTMDYWGQGTLVTVSS
VL: DIVMTQSPDSLAVSLGERATINCRASKSVSTSGYSYMHWYQQKPGQPPKLLIYLASNLHSGVPDRFSGSGSGTDFTLTISSLQAEDVAVYYCQHSRELPYHFGQGTKLEIK
notes: as for B13
[4]
  binding result: no binding (tested: 50 nM)

B15: MYT13311 (antibody, V domains shown)
VH: QVQLQESGPGLVKPSETLSLTCTVSGGSISSYGVHWIRQPPGKGLEWIGVHWTSGVTDYNSALMGRVTISVDTSKNQFSLKLSSVTAADTAVYYCARDGDYDRYTMDYWGQGTLVTVSS
VL: DIVMTQSPDSLAVSLGERATINCRASKSVSTSGYSYMHWYQQKPGQPPKLLIYLASNLHSGVPDRFSGSGSGTDFTLTISSLQAEDVAVYYCQHSRELPYHFGQGTKLEIK
notes: as for B13
[4]
  binding result: no binding (tested: 50 nM)

B16: MYT13443 (antibody, V domains shown)
VH: QVQLQESGPGLVKPSETLSLTCTVSGGSISSYGVHWIRQPPGKGLEWIGVHWTSGVTDYNSALMGRVTISVDTSKNQFSLKLSSVTAADTAVYYCARDGDYDRYTMDYWGQGTLVTVSS
VL: DIVMTQSPDSLAVSLGERATINCRASKSVSTSGYSYMHWYQQKPGQPPKLLIYLASNLHSGVPDRFSGSGSGTDFTLTISSLQAEDVAVYYCQHSRELPYHFGQGTKLEIK
notes: as for B13
[4]
  binding result: no binding (tested: 50 nM)
